Test results: patent publication US20200157236A1 (CELLDEX THERAPEUTICS, published 2020)

B1: Ab373 (antibody, V domains shown)
VH: EVQLVQSGAEVKKPGSSVKVSCKASGYTFSSYWMHWVRQAPGQGLEWIGYIKPSSGYTKYNQKFKDKATLTADKSTSTAYMELSSLRSEDTAVYYCARDYYGSSSWFAYWGQGTLVTVSS
VL: DIVMTQSQAFMSVTVGEKVTITCKASQNVGTNVAWYQQKPDQAPKALIYSASYRYSGVPSRFSGSGSGTDFTLTISSLEAEDAATYYCQQYNSYPYMYTFGQGTKLEIK
notes: humanized
B2: Ab374 (antibody, V domains shown)
VH: EVQLVQSGAEVKKPGSSVKLSCKASGYTFSSYWMHWVKQAPGQGLEWIGYIKPSSGYTKYAQKFQGRVTLTADKSTSTAYMELSSLRSEDTAVYYCARDYYGSSSWFAYWGQGTLVTVSS
VL: DIVMTQSQAFMSVTVGEKVTITCKASQNVGTNVAWYQQKPDQAPKALIYSASYRYSGVPSRFSGSGSGTDFTLTISSLEAEDAATYYCQQYNSYPYMYTFGQGTKLEIK
notes: humanized
B3: Ab375 (antibody, V domains shown)
VH: QVQLVQSGAEVAKPGTSVKLSCKASGYTFTSYWMHWVKQAPGQGLEWIGYIKPSSGYTKYNQKFKDKVTLTADKSTSTAYMELSSLRSEDTAVYYCARDYYGSSSWFAYWGQGTLVTVSS
VL: EIVMTQSPAFMSVTVGEKVTITCKASQNVGTNVAWYQQKPDQSPKALIYSASYRYSGVPSRFSGSGSGTDFTLTISSLEAEDAATYYCQQYNSYPYMYTFGQGTKLEIK
notes: humanized
B4: Ab376 (antibody, V domains shown)
VH: EVQLVQSGPEVKKPGTSVKLSCKASGYTFTSYWMHWVRQARGQRLEWIGYIKPSSGYTKYNQKFKDRATLTADKSTSTAYMELSSLRSEDTAVYYCARDYYGSSSWFAYWGQGTLVTVSS
VL: EIVMTQSPAFMSVTVGEKVTITCKASQNVGTNVAWYQQKPDQSPKALIYSASYRYSGVPSRFSGSGSGTDFTLTISSLEAEDAATYYCQQYNSYPYMYTFGQGTKLEIK
notes: humanized
B5: Ab377 (antibody, V domains shown)
VH: EVQLVQSGAEVKKPGTSVKLSCKASGYTFTSSAMQWVKQAPGQGLEWIGYIKPSSGYTKYNQKFKDKATLTADKSTSTAYMELSSLRSEDTAVYYCARDYYGSSSWFAYWGQGTLVTVSS
VL: EIVMTQSPAFMSVTVGEKVTITCKASQNVGTNVAWYQQKPDQSPKALIYSASYRYSGVPSRFSGSGSGTDFTLTISSLEAEDAATYYCQQYNSYPYMYTFGQGTKLEIK
notes: humanized
B6: Ab378 (antibody, V domains shown)
VH: EVQLVQSGAEVKKPGTSVKLSCKASGYTFTSYWMHWVRQARGQRLEWIGYIKPSSGYTKYAQKFQERVTLTADKSTSTAYMELSSLRSEDTAVYYCARDYYGSSSWFAYWGQGTLVTVSS
VL: EIVMTQSPAFMSVTVGEKVTITCKASQNVGTNVAWYQQKPDQSPKALIYSASYRYSGVPSRFSGSGSGTDFTLTISSLEAEDAATYYCQQYNSYPYMYTFGQGTKLEIK
notes: humanized
B7: Ab379 (antibody, V domains shown)
VH: QVQLVQSGAEVAKPGASVKLSCKASGYTFTSYWMHWVKQAPGQGLEWIGYIKPSSGYTKYNQKFKDKATLTADKSTSTAYMELRSLRSDDTAVYYCARDYYGSSSWFAYWGQGTLVTVSS
VL: EIVMTQSPAFMSVTVGEKVTITCKASQNVGTNVAWYQQKPDQSPKALIYSASYRYSGVPSRFSGSGSGTDFTLTISSLEAEDAATYYCQQYNSYPYMYTFGQGTKLEIK
notes: humanized
B8: Ab380 (antibody, V domains shown)
VH: EVQLVQSGAEVKKPGASVKLSCKASGYTFTSYWMHWVRQAPGQGLEWIGYIKPSSGYTKYNQKFKDKATLTADKSTSTAYMELRSLRSDDTAVYYCARDYYGSSSWFAYWGQGTLVTVSS
VL: EIVMTQSPAFMSVTVGEKVTITCKASQNVGTNVAWYQQKPDQSPKALIYSASYRYSGVPSRFSGSGSGTDFTLTISSLEAEDAATYYCQQYNSYPYMYTFGQGTKLEIK
notes: humanized
B9: Ab381 (antibody, V domains shown)
VH: EVQLVQSGAEVAKPGASVKLSCKASGYTFTSYWMHWVRQAPGQGLEWIGYIKPSSGYTKYNQKFKDKATLTADKSTSTAYMELRSLRSDDTAVYYCARDYYGSSSWFAYWGQGTLVTVSS
VL: EIVMTQSPAFMSVTVGEKVTITCKASQNVGTNVAWYQQKPDQSPKALIYSASYRYSGVPSRFSGSGSGTDFTLTISSLEAEDAATYYCQQYNSYPYMYTFGQGTKLEIK
notes: humanized
B10: Ab382 (antibody, V domains shown)
VH: EVQLVQSGAEVKKPGASVKLSCKASGYTFTSYWMHWVRQAPGQGLEWIGYIKPSSGYTKYAQKLQGRVTLTADKSTSTAYMELRSLRSDDTAVYYCARDYYGSSSWFAYWGQGTLVTVSS
VL: EIVMTQSPAFMSVTVGEKVTITCKASQNVGTNVAWYQQKPDQSPKALIYSASYRYSGVPSRFSGSGSGTDFTLTISSLEAEDAATYYCQQYNSYPYMYTFGQGTKLEIK
notes: humanized
B11: Ab383 (antibody, V domains shown)
VH: QVQLVQSGAEVAKPGSSVKLSCKASGYTFTSYWMHWVKQAPGQGLEWIGYIKPSSGYTKYNQKFKDKATLTADKSTSTAYMELSSLRSEDTAVYYCARDYYGSSSWFAYWGQGTLVTVSS
VL: EIVMTQSPAFMSVTVGEKVTITCKASQNVGTNVAWYQQKPDQSPKALIYSASYRYSGVPSRFSGSGSGTDFTLTISSLEAEDAATYYCQQYNSYPYMYTFGQGTKLEIK
notes: humanized
B12: Ab385 (antibody, V domains shown)
VH: EVQLVQSGAEVKKPGSSVKVSCKASGYTFSSYWMHWVRQAPGQGLEWIGYIKPSSGYTKYNQKFKDKATLTADKSTSTAYMELSSLRSEDTAVYYCARDYYGSSSWFAYWGQGTLVTVSS
VL: EIVMTQSPAFMSVTVGEKVTITCKASQNVGTNVAWYQQKPDQSPKALIYSASYRYSGVPSRFSGSGSGTDFTLTISSLEAEDAATYYCQQYNSYPYMYTFGQGTKLEIK
notes: humanized
B13: Ab386 (antibody, V domains shown)
VH: EVQLVQSGAEVKKPGSSVKLSCKASGYTFSSYWMHWVKQAPGQGLEWIGYIKPSSGYTKYAQKFQGRVTLTADKSTSTAYMELSSLRSEDTAVYYCARDYYGSSSWFAYWGQGTLVTVSS
VL: EIVMTQSPAFMSVTVGEKVTITCKASQNVGTNVAWYQQKPDQSPKALIYSASYRYSGVPSRFSGSGSGTDFTLTISSLEAEDAATYYCQQYNSYPYMYTFGQGTKLEIK
notes: humanized
B14: Ab420 (antibody, V domains shown)
VH: EVQLVQSGAEVKKPGSSVKLSCKASGYTFTSYWMHWVRQAPGQGLEWIGYIKPSSGYTKYNQKFKDKATLTADKSTSTAYMELSSLRSEDTAVYYCARDYYGSSSWFAYWGQGTLVTVSS
VL: EIVMTQSQATLSTSPGERATLSCKASQNVGTNVAWYQQKPGQAPRALIYSASYRYSGVPARFSGSGSGTDFTLTISSVEPEDFAVYYCQQYNSYPYMYTFGQGTKLEIK
notes: humanized
B15: Ab387 (antibody, V domains shown)
VH: QVQLVQSGAEVAKPGTSVKLSCKASGYTFTSYWMHWVKQAPGQGLEWIGYIKPSSGYTKYNQKFKDKVTLTADKSTSTAYMELSSLRSEDTAVYYCARDYYGSSSWFAYWGQGTLVTVSS
VL: EIVMTQSPATLSTSPGERATLSCKASQNVGTNVAWYQQKPGQAPRALIYSASYRYSGVPARFSGSGSGTDFTLTISSVEPEDFAVYYCQQYNSYPYMYTFGQGTKLEIK
notes: humanized
B16: Ab388 (antibody, V domains shown)
VH: EVQLVQSGPEVKKPGTSVKLSCKASGYTFTSYWMHWVRQARGQRLEWIGYIKPSSGYTKYNQKFKDRATLTADKSTSTAYMELSSLRSEDTAVYYCARDYYGSSSWFAYWGQGTLVTVSS
VL: EIVMTQSPATLSTSPGERATLSCKASQNVGTNVAWYQQKPGQAPRALIYSASYRYSGVPARFSGSGSGTDFTLTISSVEPEDFAVYYCQQYNSYPYMYTFGQGTKLEIK
notes: humanized
B17: Ab389 (antibody, V domains shown)
VH: EVQLVQSGAEVKKPGTSVKLSCKASGYTFTSSAMQWVKQAPGQGLEWIGYIKPSSGYTKYNQKFKDKATLTADKSTSTAYMELSSLRSEDTAVYYCARDYYGSSSWFAYWGQGTLVTVSS
VL: EIVMTQSPATLSTSPGERATLSCKASQNVGTNVAWYQQKPGQAPRALIYSASYRYSGVPARFSGSGSGTDFTLTISSVEPEDFAVYYCQQYNSYPYMYTFGQGTKLEIK
notes: humanized
B18: Ab390 (antibody, V domains shown)
VH: EVQLVQSGAEVKKPGTSVKLSCKASGYTFTSYWMHWVRQARGQRLEWIGYIKPSSGYTKYAQKFQERVTLTADKSTSTAYMELSSLRSEDTAVYYCARDYYGSSSWFAYWGQGTLVTVSS
VL: EIVMTQSPATLSTSPGERATLSCKASQNVGTNVAWYQQKPGQAPRALIYSASYRYSGVPARFSGSGSGTDFTLTISSVEPEDFAVYYCQQYNSYPYMYTFGQGTKLEIK
notes: humanized
B19: Ab391 (antibody, V domains shown)
VH: QVQLVQSGAEVAKPGASVKLSCKASGYTFTSYWMHWVKQAPGQGLEWIGYIKPSSGYTKYNQKFKDKATLTADKSTSTAYMELRSLRSDDTAVYYCARDYYGSSSWFAYWGQGTLVTVSS
VL: EIVMTQSPATLSTSPGERATLSCKASQNVGTNVAWYQQKPGQAPRALIYSASYRYSGVPARFSGSGSGTDFTLTISSVEPEDFAVYYCQQYNSYPYMYTFGQGTKLEIK
notes: humanized
B20: Ab392 (antibody, V domains shown)
VH: EVQLVQSGAEVKKPGASVKLSCKASGYTFTSYWMHWVRQAPGQGLEWIGYIKPSSGYTKYNQKFKDKATLTADKSTSTAYMELRSLRSDDTAVYYCARDYYGSSSWFAYWGQGTLVTVSS
VL: EIVMTQSPATLSTSPGERATLSCKASQNVGTNVAWYQQKPGQAPRALIYSASYRYSGVPARFSGSGSGTDFTLTISSVEPEDFAVYYCQQYNSYPYMYTFGQGTKLEIK
notes: humanized
B21: Ab393 (antibody, V domains shown)
VH: EVQLVQSGAEVAKPGASVKLSCKASGYTFTSYWMHWVRQAPGQGLEWIGYIKPSSGYTKYNQKFKDKATLTADKSTSTAYMELRSLRSDDTAVYYCARDYYGSSSWFAYWGQGTLVTVSS
VL: EIVMTQSPATLSTSPGERATLSCKASQNVGTNVAWYQQKPGQAPRALIYSASYRYSGVPARFSGSGSGTDFTLTISSVEPEDFAVYYCQQYNSYPYMYTFGQGTKLEIK
notes: humanized

Each binder was assayed against T1, purified ALK protein (BLitz, Table 20) (Homo sapiens (Human), UniProt Q9UM73 19-1038, limits assumed) (assay: BLI (BLitz), mAb on Protein A tip, purified ALK in solution).
T1 construct: also called purified ALK proteins
T1 sequence (Q9UM73 19-1038 limits assumed): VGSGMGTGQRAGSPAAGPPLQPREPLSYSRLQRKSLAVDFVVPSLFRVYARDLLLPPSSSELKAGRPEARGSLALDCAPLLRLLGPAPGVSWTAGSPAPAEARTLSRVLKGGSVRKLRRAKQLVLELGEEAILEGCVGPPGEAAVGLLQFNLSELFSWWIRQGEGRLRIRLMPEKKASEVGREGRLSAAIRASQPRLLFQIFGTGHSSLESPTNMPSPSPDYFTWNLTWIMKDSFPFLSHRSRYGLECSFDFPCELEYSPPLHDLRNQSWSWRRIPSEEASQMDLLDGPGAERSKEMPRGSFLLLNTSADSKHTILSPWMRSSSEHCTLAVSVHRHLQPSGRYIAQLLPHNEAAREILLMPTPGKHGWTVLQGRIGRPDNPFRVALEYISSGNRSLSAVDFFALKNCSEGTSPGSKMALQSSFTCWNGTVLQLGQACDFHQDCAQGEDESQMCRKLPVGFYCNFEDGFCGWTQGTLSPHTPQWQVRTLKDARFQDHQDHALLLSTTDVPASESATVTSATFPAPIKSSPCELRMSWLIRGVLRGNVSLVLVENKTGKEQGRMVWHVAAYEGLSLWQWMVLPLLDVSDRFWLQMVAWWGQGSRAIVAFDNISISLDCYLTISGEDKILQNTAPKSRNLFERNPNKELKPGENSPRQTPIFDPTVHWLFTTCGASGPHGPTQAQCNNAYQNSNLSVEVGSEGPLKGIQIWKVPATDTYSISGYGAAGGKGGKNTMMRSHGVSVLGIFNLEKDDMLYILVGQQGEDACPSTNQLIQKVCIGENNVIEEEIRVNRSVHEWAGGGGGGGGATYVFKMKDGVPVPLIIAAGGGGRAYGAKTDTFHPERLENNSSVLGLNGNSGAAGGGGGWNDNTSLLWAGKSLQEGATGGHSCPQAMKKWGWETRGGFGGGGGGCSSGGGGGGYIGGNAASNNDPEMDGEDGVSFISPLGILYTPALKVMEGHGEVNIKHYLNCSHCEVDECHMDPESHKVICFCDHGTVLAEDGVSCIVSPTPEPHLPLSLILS
Procedure: Kinetic measurements of the monovalent affinity of the 96 humanized ALK antibody variants (Ab351-Ab446) were collected. Affinity ranking was performed using a BLitz® System (ForteBio, Menlo Park, Calif.). Humanized anti-ALK antibodies were immobilized at 0.5 mg/mL using Protein A tips. Once baseline stability was ensured, purified ALK proteins at 70 μg/mL were added. The resulting kinetic data were fit to a single binding site equation, from which the quoted monovalent KD values were derived.
B1 was tested, and the Kd was 280 nM. For B2, the Kd was 253 nM. B3 gave a Kd of 140 nM. B4 gave a Kd of 103 nM. For B5, the Kd was 927 nM. B6 was tested, and the Kd was 167 nM. Work on B7 yielded a Kd of 118 nM. B8 was tested, and the Kd was 141 nM. B9 gave a Kd of 180 nM. With B10 the Kd was 141 nM. Binder B11 has a Kd of 132 nM. Binder B12 has a Kd of 626 nM. B13 showed a Kd of 257 nM. Binder B14 has a Kd of 233 nM. B15 showed a Kd of 158 nM. Work on B16 yielded a Kd of 108 nM. B17 showed a Kd of 1550 nM. B18 was tested, and the Kd was 288 nM. Binder B19 has a Kd of 175 nM. B20 showed a Kd of 179 nM. With B21 the Kd was 186 nM.
